Data published in paper PMC2666730, “HMGB1/2 can target DNA for illegitimate cleavage by the RAG1/2 complex”.

Key:
HMGB1 Tailless [1] = biological target: T1, HMGB1 Tailless (UniProt P09429 1-163); assay: EMSA; conditions: EMSA as in ref 30; binding buffer, salt, pH and temperature not given in the material; scale: fold more protein needed than for bps6197
HMGB1 full-length [2] = biological target: T2, HMGB1 full-length (UniProt P09429 1-215); assay: EMSA; conditions: EMSA as in ref 30; binding buffer, salt, pH and temperature not given in the material; scale: fold more protein needed than for bps6197
T2 sequence (P09429 whole entry): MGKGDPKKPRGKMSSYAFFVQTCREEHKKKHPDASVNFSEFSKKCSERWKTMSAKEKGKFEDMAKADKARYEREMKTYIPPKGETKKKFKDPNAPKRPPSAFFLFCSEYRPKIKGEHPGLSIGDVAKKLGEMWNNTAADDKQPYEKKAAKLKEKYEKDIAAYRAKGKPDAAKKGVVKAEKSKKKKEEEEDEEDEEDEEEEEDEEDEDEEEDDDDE

HMGB1 full-length [3] = biological target: T2, HMGB1 full-length; assay: EMSA; 0-320 ng HMGB1; EMSA as in ref 30; binding buffer, salt, pH and temperature not given in the material; conditions: protein: recombinant; tags: N-terminal His6; label: 5' radiolabel, top strand; blunt
[4] = biological target: T3, cMR1 (core RAG1, MBP fusion);cMR2 (core RAG2, MBP fusion) (;, UniProt P15919;P21784 384-1040;1-387, |); assay: EMSA; without HMGB1; similar to 23-RSS, slightly more susceptible to cold 23-RSS; EMSA as in ref 30; binding buffer, salt, pH and temperature not given in the material; conditions: protein: recombinant;recombinant; tags: N-terminal MBP;N-terminal MBP; chain copies: 2;1; label: 5' radiolabel, top strand; blunt
T3 sequence 1: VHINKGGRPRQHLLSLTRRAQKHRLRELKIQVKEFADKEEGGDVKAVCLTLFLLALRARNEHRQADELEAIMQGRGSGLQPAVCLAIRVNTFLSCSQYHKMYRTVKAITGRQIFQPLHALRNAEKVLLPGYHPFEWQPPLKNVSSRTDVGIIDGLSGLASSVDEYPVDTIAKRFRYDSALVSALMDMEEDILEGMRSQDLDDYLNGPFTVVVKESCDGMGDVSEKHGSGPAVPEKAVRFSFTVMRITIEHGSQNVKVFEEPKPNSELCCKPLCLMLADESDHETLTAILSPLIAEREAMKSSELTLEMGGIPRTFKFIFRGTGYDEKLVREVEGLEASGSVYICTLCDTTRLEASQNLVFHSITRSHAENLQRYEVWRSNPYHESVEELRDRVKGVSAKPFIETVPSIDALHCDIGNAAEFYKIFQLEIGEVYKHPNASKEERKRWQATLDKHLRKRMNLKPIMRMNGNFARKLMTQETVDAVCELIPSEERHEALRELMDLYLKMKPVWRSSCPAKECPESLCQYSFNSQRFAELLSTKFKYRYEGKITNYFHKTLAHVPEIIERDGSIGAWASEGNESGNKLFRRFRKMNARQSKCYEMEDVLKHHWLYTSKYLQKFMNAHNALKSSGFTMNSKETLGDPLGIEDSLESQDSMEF
T3 sequence 2: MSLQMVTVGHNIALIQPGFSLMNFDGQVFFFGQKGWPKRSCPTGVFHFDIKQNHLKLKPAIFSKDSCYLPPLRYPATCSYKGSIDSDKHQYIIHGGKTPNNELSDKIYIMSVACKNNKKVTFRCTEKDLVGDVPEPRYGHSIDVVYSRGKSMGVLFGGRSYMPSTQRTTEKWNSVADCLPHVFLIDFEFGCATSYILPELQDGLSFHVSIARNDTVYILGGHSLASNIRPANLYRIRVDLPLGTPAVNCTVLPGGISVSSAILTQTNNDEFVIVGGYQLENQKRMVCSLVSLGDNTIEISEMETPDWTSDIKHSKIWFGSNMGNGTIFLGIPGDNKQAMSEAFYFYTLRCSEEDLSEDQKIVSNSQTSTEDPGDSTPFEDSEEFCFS

[5] = biological target: cMR1 (core RAG1, MBP fusion);cMR2 (core RAG2, MBP fusion);HMGB1 full-length (;;, UniProt P15919;P21784;P09429 384-1040;1-387;1-215, ||); assay: EMSA; with HMGB1; similar to 23-RSS; EMSA as in ref 30; binding buffer, salt, pH and temperature not given in the material; conditions: protein: recombinant;recombinant;recombinant; tags: N-terminal MBP;N-terminal MBP;N-terminal His6; chain copies: 2;1;1; label: 5' radiolabel, top strand; blunt
cMR1 (core RAG1, MBP fusion);cMR2 (core RAG2, MBP fusion);HMGB1 full-length, sequence (P09429 whole entry, the tested form may be a part, one chain of several): as the sequence (P09429 whole entry) above

HMGB1 Tailless [6] = biological target: T1, HMGB1 Tailless; assay: EMSA; 0-140 ng tailless HMGB1; EMSA as in ref 30; binding buffer, salt, pH and temperature not given in the material; conditions: protein: recombinant; tags: N-terminal His6; label: 5' radiolabel, top strand; blunt

T1 sequence (P09429 1-163): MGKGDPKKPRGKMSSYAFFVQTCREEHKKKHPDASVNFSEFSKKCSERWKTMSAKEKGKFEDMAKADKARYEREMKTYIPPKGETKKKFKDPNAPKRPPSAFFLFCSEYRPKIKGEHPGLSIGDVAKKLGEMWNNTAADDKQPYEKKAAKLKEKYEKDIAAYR

| Molecule | binding signal (HMGB1 Tailless [1]) | binding signal (HMGB1 full-length [2]) | binding signal (HMGB1 full-length [3]) | binding result [4] | binding result [5] | binding signal (HMGB1 Tailless [6]) |
| --- | --- | --- | --- | --- | --- | --- |
| 23-RSS (consensus) | 1.5 | 1.5 |  |  |  |  |
| bps6197 (dsDNA) DNA 1: TCCCCGAAAAGTGCCACCTGACGTCTAAGAAACCATTATTATCATGACATTAACCTATAAA DNA 2: TTTATAGGTTAATGTCATGATAATAATGGTTTCTTAGACGTCAGGTGGCACTTTTCGGGGA |  |  | ~1.5 fold less protein needed than for 23-RSS | binds | binds | ~1.5 fold less protein needed than for 23-RSS |
